IntAct's records for PubMed 16377563

Assays:
h2ax_human H2AX [1] = target: h2ax_human H2AX (UniProt P16104)
h2ax_human H2AX [2] = target: h2ax_human H2AX (UniProt P16104); remark: listed apart in the source
h2ax_human H2AX [3] = target: h2ax_human H2AX (UniProt P16104); remark: listed apart in the source

| Substance | effect of a mutation on the interaction (h2ax_human H2AX [1]) | effect of a mutation on the interaction (h2ax_human H2AX [2]) | effect of a mutation on the interaction (h2ax_human H2AX [3]) |
| --- | --- | --- | --- |
| Mediator of DNA damage checkpoint protein 1 (Homo sapiens), Q14676 K1936M | disrupting interaction | decreasing interaction |  |
| Mediator of DNA damage checkpoint protein 1 (Homo sapiens), Q14676 R1933Q |  |  | disrupting interaction |
| Mediator of DNA damage checkpoint protein 1 (Homo sapiens), Q14676 T1898V |  |  | decreasing interaction |
